Results taken from patent US20220089757A1 (ADAGENE PTE, published 2022).

T1: human CD137L peptide 02 (human, biotinylated (position not given))
T1 construct: Synthesized as biotinylated peptide; identical to peptide 01 except that it lacks the C-terminal 5 residues
T1 peptide: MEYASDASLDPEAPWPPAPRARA

T2: human CD137L peptide 01 (human, biotinylated (position not given))
T2 construct: Synthesized as biotinylated peptide
T2 peptide: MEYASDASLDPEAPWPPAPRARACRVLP


What was measured:
[1] = target: T1, human CD137L peptide 02; experiment: ELISA, IgG on CD137L peptide 02
[2] = target: T2, human CD137L peptide 01; experiment: ELISA, IgG on CD137L peptide 01
[3] = target: T3, full length human CD137L (human, UniProt P41273 1-254); experiment: immunofluorescence microscopy on fixed and permeabilized CHO-S-CD137L cells
T3 construct: also called CD137 ligand; human CD137 ligand
Description: FIGS. 3A-3C show immunofluorescence staining of TY23557, TY23561, the Reference-1 and isotype control antibodies at the indicated concentrations. The positive control CHO-S-CD137L cell line and the negative control CHO-S cells were washed, fixed and permabilized in a similar fashion as in immunohistochemistry (IHC), followed by analysis through fluorescence microscopy. (FIG. 3A) CHO-S-CD137L cells were stained with TY23557 or TY23561 (0.4 nM or 40 nM). (FIG. 3B) CHO-S-CD137L cells were stained with Reference-1 (6.66 nM) or negative isotype control (40 nM). (FIG. 3C) CHO-S cells were stained with TY23557 (40 nM), TY23561 (40 nM), negative isotype control (40 nM) or Reference-1 (6.66 nM).
The specificity of the antibodies were further confirmed with immunofluorescence analysis. To that end, CHO-S and CHO-S-CD137L cells were cultured on cover slides overnight. Cells were washed with DPBS followed by fixing and permeabilizing with 2% (v/v) paraformaldehyde and 0.1% Triton X 100. Then the cells were incubated with TY23557, TY23561, negative isotype control and Reference-1 (positive control) for one hour at room temperature. After washing by 0.05% PBST, PE Goat anti-mouse IgG Fc were added and staining for one hour at room temperature. The samples were analyzed with fluorescent microscopy.

Row | Binder | EC50 [1] | EC50 [2] | binding result [3]
1 | TY23554 (antibody, V domains shown, Tested as IgG with Fc from mouse IgG2a, expressed in mammalian cells) VH: EVQLVESGGGLVQPGGSLRLSCAASGYSITSGYYWAWIRQAPGKGLEWIGIINPNRGSTKYAQKFQGRVTISRDNSKNTLYLQLNSLRAEDTAVYYCARDGWALSGGYYYYYGLDVWGQGTLVTVSS VL: DIQLTQSPSSLSASVGDRVTITCRASQDISSDLAWYQQKPGKAPKLLIYDASNLETGVPSRFSGSGSGTDFTLTISSLQPEDFATYYCQQYDAWPSTFGQGTKVEIKR | 1.59 nM | 3.13 nM | 
2 | TY23556 (antibody, V domains shown, Tested as IgG with Fc from mouse IgG2a, expressed in mammalian cells) VH: EVQLVESGGGLVQPGGSLRLSCAASGYSITSGHYWGWIRQAPGKGLEWIGEIYHSGSTYYSPSLKSRVTISRDNSKNTLYLQLNSLRAEDTAVYYCTRGRYGLDYWGQGTLVTVSS VL: DIQLTQSPSSLSASVGDRVTITCSASSSVGYVQWYQQKPGKAPKLLIYDASNRATGIPSRFSGSGSGTDFTLTISSLQPEDFATYYCQQYGSAPITFGQGTKVEIKR | 0.48 nM | 0.66 nM | 
3 | TY23558 (antibody, V domains shown, Tested as IgG with Fc from mouse IgG2a, expressed in mammalian cells; also called TV23558) VH: EVQLVESGGGLVQPGGSLRLSCAASGYSISSGHYWSWIRQAPGKGLEWIGEIYHSGSTYYSPSLKSRVTISRDNSKNTLYLQLNSLRAEDTAVYYCAREGSDSYGGPDPFDIWGQGTLVTVSS VL: DIQLTQSPSSLSASVGDRVTITCRARSTVSFPYLHWYQQKPGKAPKLLIYDASNLETGVPSRFSGSGSGTDFTLTISSLQPEDFATYYCQQSLEDPFTFGQGTKVEIKR | 1.51 nM | 3.84 nM | 
4 | TY23555 (antibody, V domains shown, Tested as IgG with Fc from mouse IgG2a, expressed in mammalian cells) VH: EVQLVESGGGLVQPGGSLRLSCAASGYSISSGHYWAWIRQAPGKGLEWVSVISGSGGSTYYADSVKGRFTISRDNSKNTLYLQLNSLRAEDTAVYYCARYRSGAFDYWGQGTLVTVSS VL: DIQLTQSPSSLSASVGDRVTITCRASQSISRWLAWYQQKPGKAPKLLIYAASSLQSGVPSRFSGSGSGTDFTLTISSLQPEDFATYYCQQAYSIWTFGQGTKVEIKR | 12.3 nM | 28.5 nM | 

Continued by falling EC50 [1], values first:

Row | EC50 [1] | EC50 [2] | binding result [3] | Binder
5 | 50 nM | 166 nM |  | TY23561 (antibody, V domains shown, Tested as IgG with Fc from mouse IgG2a, expressed in mammalian cells) VH: EVQLVESGGGLVQPGGSLRLSCAASGFSLSTSGVGVSWIRQAPGKGLEWLALIDWAGDKYYSPSLKSRLTISRDNSKNTLYLQLNSLRAEDTAVYYCARYGYSSYALDYWGQGTLVTVSS VL: DIQLTQSPSSLSASVGDRVTITCRASQSVRGSYLAWYQQKPGKAPKLLIYAASTLQSGVPSRFSGSGSGTDFTLTISSLQPEDFATYYCQQYSSLWTFGQGTKVEIKR
6 | 6.77 nM | 10.1 nM | binds | TY23557 (antibody, V domains shown, Tested as IgG with Fc from mouse IgG2a, expressed in mammalian cells) VH: EVQLVESGGGLVQPGGSLRLSCAASGFTFTGYGIHWVRQAPGKGLEWVSAISGSGGSTYYADSVKGRFTISRDNSKNTLYLQLNSLRAEDTAVYYCARGAYYGGSYYFDYWGQGTLVTVSS VL: DIQLTQSPSSLSASVGDRVTITCRASESITSSYLAWYQQKPGKAPKLLIYDASSLESGVPSRFSGSGSGTDFTLTISSLQPEDFATYYCFQGSHYPPTFGQGTKVEIKR
7 | 0.74 nM | 2.04 nM |  | TY23562 (antibody, V domains shown, Tested as IgG with Fc from mouse IgG2a, expressed in mammalian cells) VH: EVQLVESGGGLVQPGGSLRLSCAASGYSISSGYHWDWIRQAPGKGLEWIGRINPNRGSTKYAQKFQGRVTISRDNSKNTLYLQLNSLRAEDTAVYYCAREFGAYWGQGTLVTVSS VL: DIQLTQSPSSLSASVGDRVTITCRASQSVDFVGKSFLDWYQQKPGKAPKLLIYDASNLETGVPSRFSGSGSGTDFTLTISSLQPEDFATYYCQQRASWPLTFGQGTKVEIKR
8 | 0.65 nM | 1.03 nM |  | TY23559 (antibody, V domains shown, Tested as IgG with Fc from mouse IgG2a, expressed in mammalian cells) VH: EVQLVESGGGLVQPGGSLRLSCAASGYSISSGHYWAWIRQAPGKGLEWIGEIYHSGSTYYSPSLKSRVTISRDNSKNTLYLQLNSLRAEDTAVYYCTRGRYGLDYWGQGTLVTVSS VL: DIQLTQSPSSLSASVGDRVTITCSASSSVSYVQWYQQKPGKAPKLLIYDASNRATGIPSRFSGSGSGTDFTLTISSLQPEDFATYYCQQYSTNPLTFGQGTKVEIKR
